T1: MED15 (Mus musculus (endogenous in CH12 cells), UniProt Q924H2 1-789)
T1 sequence (looked up): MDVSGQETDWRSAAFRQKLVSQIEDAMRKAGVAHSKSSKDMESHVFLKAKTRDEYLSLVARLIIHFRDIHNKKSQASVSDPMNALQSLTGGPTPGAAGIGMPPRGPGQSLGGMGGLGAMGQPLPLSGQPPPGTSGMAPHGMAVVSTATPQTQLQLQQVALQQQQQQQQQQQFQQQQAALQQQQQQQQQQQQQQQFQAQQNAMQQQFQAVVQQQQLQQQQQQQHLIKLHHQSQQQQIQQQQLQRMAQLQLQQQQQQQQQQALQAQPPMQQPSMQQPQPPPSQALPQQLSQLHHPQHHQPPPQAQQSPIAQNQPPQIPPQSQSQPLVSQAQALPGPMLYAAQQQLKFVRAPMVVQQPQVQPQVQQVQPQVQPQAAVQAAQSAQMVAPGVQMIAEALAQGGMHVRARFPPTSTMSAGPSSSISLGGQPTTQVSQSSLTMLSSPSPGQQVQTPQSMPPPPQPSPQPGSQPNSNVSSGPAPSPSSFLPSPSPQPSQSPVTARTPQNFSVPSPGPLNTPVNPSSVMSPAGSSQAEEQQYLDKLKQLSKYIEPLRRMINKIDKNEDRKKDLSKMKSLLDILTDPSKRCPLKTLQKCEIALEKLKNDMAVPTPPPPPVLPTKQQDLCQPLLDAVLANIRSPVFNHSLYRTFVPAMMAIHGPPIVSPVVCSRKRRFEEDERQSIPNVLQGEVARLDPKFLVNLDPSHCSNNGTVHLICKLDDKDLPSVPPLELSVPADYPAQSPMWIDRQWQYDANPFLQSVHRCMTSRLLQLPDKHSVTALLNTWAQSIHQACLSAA

T2: MED16 (Mus musculus (endogenous in CH12 cells), UniProt Q6PGF3 1-828)
T2 sequence (looked up): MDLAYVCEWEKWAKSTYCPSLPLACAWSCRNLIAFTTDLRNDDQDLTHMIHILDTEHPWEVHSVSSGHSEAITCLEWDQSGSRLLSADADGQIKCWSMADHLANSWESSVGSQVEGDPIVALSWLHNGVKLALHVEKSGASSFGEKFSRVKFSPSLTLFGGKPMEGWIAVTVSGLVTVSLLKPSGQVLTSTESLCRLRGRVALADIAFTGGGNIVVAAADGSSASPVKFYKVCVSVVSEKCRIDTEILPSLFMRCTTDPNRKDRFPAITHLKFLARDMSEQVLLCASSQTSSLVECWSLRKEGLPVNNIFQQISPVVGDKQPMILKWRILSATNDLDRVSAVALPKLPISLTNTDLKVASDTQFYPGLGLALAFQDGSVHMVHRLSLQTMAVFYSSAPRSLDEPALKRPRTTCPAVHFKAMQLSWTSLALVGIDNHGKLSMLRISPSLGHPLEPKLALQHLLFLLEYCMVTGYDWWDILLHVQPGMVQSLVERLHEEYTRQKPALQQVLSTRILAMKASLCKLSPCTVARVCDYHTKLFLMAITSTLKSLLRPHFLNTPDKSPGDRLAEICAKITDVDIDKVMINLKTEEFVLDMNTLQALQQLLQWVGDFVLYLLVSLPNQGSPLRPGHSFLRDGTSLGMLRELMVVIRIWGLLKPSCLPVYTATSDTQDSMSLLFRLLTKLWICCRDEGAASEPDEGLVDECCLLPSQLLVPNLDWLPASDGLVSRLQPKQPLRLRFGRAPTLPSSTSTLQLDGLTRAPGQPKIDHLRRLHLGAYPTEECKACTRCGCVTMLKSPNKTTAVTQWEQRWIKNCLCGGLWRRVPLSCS

T3: MED22 (Mus musculus (endogenous in CH12 cells), UniProt Q62276 1-200)
T3 sequence (looked up): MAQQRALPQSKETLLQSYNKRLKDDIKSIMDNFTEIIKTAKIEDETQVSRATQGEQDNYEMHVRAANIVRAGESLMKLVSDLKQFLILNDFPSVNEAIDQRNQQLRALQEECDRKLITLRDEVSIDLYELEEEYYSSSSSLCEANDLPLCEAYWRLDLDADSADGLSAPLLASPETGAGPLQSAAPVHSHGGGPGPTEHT

B1: MED27 (natural protein, Mus musculus (endogenous in CH12 cells), UniProt Q9DB40 1-311, looked up)
chain: MADVLSVGVNLEAFSQAISAIQALRSSVSRVFDCLKDGMRNKETLEGREKAFIANFQDNLHSVNRDLNELERLSNLVGKPSENHPLHNSGLLSLDPVQDKTPLYSQLLQAYKWSNKLQYHAGLASGLLNQQSLKRSANQMGVSAKRRPKAQPTTLVLPPQYVDDVISRIDRMFPEMSIHLSRPNGTSAMLLVTLGKVLKVIVVMRSLFIDRTIVKGYNESVYTEDGKLDIWSKSSYQVFQKVTDHATTALLHYQLPQMPDVVVRSFMTWLRSYIKLFQAPCQRCGKFLQDGLPPTWRDFRTLEAFHDTCRQ
B2: MED28 (natural protein, Mus musculus (endogenous in CH12 cells), UniProt Q920D3 1-178, looked up)
chain: MAASLGGMFTGQPPGPPPPPPGLPGQASLLQAAPGAPRPSNSTLVDELESSFEACFASLVSQDYVNGTDQEEIRTGVDQCIQKFLDIARQTECFFLQKRLQLSVQKPDQVIKEDVSELRSELQRKDALVQKHLTKLRHWQQVLEDINVQHKKPADMPQGSLAFLEQASANIPAPLKQT
B3: MED29 (natural protein, Mus musculus (endogenous in CH12 cells), UniProt Q9DB91 1-199, looked up)
chain: MAAPQPQAAAVSSASGVSGPGSAGGPGPQQQPQPTQLVGSAQSGLLQQQQQDFDPVQRYKMLIPQLKESLQTLMKVAAQNLIQNTNIDNGQKSSDAPLQRFDKCLEEFYALCDQLELCLRLAHECLSQSCDSAKHSPTLVPTATKPDAVQPDSLPYPQYLAVIKAQITCAKDIHTALLDCANKVTGKTTAPSTGPGGSL
B4: MED30 (natural protein, Mus musculus (endogenous in CH12 cells), UniProt Q9CQI9 1-178, looked up)
chain: MSTPPLAPTGMASGPFGGPQAQQAAREVNTATLCRIGQETVQDIVYRTMEIFQLLRNMQLPNGVTYHTGTYQDRLTKLQDHLRQLSILFRKLRLVYDKCNENCGGMDPIPVEQLIPYVDEDGSKNDDRAGPPRFASEERREIVEVNKKLKQKNQQLKQIMDQLRNLIWDINAMLAMRN
B5: MED17 (natural protein, Mus musculus (endogenous in CH12 cells), UniProt Q8VCD5 1-649, looked up)
chain: MSGVRAVRISIESACEKQVQEVGLDGTETYLQPLSMSQNLARLAQRIDFSQGSGSEEEEAAGPDGDAPDWGGAGADQDDEEGLVKFQPSLWPWDSVRNNLRSALTEMCVLYDVLSIVRDKKFMTLDPVSQDALPPKQSPQTLQLISKKKSLAGAAQILLKGAERLTKSVAENQENKLQRDFNSELLRLRQHWKLRKVGDKILGDLSYRSAGSLFPHHGTFEVIKNTDIDLDKKIPEDYCPLDVQIPSDLEGSAYIKVSIQKQAPDIGDLGTVNLFKRPLPKSKPGSPHWQTKLEAAQNVLLCKEIFAQLSREAVQIKSQIPHIVVKNQIISQPFPSLQLSISLCHSSDDKKSQKCAAEKPGQEDHLYVLEHNLHLLIREFHKQTLSSIVMPHPASAPFGHKRMRLSGPQAFDKNEINSIQSTEGLLEKIIKQAKHIFLRSRTAATIDSLASRIEDPQIQAHWSNINDVYESSVKVLITSQGYEQICKSIQLQLNIGVEQVRVVHRDGRVIMLSHQEQELQDFLLSQMSQHQVHAVQQLAKVMGWQVLSFSNHVGLGPIESIGNASAITVASPSGDYAISVRNGPESGSKIMVQFPRNQCKDLPKSDVLQDSKWSHLRGPFKEVQWNKMEGRNFVYKMELLMSALSPCLL

Columns and labels:
Assay in all cases: cryo-EM structure
MED14 = MED14 (Mus musculus (endogenous in CH12 cells), UniProt A2ABV5 1-1459)
MED15 = molecular target: T1, MED15
MED16 = molecular target: T2, MED16
MED17 = molecular target: B5
MED22 = molecular target: T3, MED22
MED27 = molecular target: B1
MED29 = molecular target: B3
MED30 = molecular target: B4

Measured: binding result

Sequence of MED14 (A2ABV5 whole entry): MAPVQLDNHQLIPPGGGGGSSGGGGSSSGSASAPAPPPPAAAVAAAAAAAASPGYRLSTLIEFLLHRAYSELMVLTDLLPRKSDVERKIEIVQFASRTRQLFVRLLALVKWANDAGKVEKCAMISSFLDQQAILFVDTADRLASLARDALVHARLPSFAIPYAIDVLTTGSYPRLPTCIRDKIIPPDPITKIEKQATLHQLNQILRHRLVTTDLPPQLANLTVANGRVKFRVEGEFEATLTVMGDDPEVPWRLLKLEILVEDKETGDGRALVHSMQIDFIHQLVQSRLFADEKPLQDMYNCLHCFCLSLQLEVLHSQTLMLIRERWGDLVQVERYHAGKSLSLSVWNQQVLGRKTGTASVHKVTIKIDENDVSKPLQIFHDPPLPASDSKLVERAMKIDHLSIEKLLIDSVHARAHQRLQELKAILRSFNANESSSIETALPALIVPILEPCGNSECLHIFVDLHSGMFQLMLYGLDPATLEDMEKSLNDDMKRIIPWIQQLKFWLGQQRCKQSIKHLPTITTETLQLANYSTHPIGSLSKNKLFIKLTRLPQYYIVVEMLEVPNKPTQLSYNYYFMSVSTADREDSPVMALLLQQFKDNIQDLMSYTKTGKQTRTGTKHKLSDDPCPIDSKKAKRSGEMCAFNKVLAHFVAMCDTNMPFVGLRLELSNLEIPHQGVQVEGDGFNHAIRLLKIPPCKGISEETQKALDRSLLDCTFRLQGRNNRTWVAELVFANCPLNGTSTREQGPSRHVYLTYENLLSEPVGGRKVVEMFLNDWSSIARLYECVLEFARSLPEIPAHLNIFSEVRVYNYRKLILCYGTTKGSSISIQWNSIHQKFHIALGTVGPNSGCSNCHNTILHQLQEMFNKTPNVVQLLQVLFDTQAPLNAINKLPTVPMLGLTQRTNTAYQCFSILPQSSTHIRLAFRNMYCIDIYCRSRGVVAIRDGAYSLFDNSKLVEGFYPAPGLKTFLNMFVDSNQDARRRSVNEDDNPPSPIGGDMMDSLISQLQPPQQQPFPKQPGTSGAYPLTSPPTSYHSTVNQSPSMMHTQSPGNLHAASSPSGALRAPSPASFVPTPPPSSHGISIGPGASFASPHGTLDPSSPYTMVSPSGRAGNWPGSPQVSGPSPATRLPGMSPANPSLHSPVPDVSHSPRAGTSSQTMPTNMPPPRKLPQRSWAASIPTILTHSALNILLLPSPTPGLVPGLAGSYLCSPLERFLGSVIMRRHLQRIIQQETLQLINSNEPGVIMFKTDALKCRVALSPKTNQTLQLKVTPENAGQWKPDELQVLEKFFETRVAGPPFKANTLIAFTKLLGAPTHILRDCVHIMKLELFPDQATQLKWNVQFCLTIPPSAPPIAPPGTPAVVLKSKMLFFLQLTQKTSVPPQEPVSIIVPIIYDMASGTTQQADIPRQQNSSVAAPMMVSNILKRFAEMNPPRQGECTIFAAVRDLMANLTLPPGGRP

B1
binds: MED14 | MED15 | MED16 | MED17

B2
binds: MED22 | MED27 | MED29 | MED30

B3
binds: MED27 | MED14 | MED15 | MED16

B4
binds: MED22 | MED27 | MED29

B5
binds: MED14 | MED15
